Source: paper PMC2714593, “Insights into the role of Val45 and Gln182 of Escherichia coli MutY in DNA substrate binding and specificity”

Molecular target: T1, MutY (EcMutY) wild type (Escherichia coli, UniProt P17802 1-350)
T1 sequence: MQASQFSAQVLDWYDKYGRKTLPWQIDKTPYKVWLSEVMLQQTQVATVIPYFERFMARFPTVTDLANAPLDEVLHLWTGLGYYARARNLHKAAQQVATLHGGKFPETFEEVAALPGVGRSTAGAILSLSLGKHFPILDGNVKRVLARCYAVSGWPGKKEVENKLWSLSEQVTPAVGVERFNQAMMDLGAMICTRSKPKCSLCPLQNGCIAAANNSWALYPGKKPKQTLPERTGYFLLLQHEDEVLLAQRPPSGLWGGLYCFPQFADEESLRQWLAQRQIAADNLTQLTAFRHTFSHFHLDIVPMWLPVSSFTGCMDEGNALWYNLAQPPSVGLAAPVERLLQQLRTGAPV
Assay: EMSA; 20 mM Tris-HCl pH 7.6, 80 mM NaCl, 1 mM DTT, 1 mM EDTA, 2.9% glycerol, 20 ng poly dI/dC per 20 ul, 0.09 nM labeled DNA, 30 min at 30 C; 4% PAGE in TBE
Settings: protein: recombinant; label: 5'-32P on X strand; blunt; T/G mismatch at strand 1 position 22

B1: T/G 44-mer (dsDNA)
DNA 1: AATTGGGCTCCTCGAGGAATTTGCCTTCTGCAGGCATGCCCCGG
DNA 2: CCGGGGCATGCCTGCAGAAGGCGAATTCCTCGAGGAGCCCAATT
B1 was tested, and the Kd was 14 ± 1 nM.
